According to US5547932:

Target: transferrin receptor on NIH3T3 cells and on C2C12 and G8 myoblasts and myotubes (Mus musculus (Mouse)) (UniProt Q62351)

Question: For “human transferrin-polylysine conjugate (from UniProt P02787) (ligand)”, which luciferase activity is on record?
Answer: Its luciferase activity is under 1 log.
